The test concerns the target T1, E-His6融合蛋白 (寨卡病毒 (Zika virus), UniProt A0A024B7W1 292-693).
T1 construct: also called 寨卡病毒的E蛋白; E蛋白
Nature of the test: ELISA screen of memory B cell culture supernatants on coated E-His6 fusion protein; the antibody genes were cloned from positive wells. (ELISA stands for enzyme-linked immunosorbent assay.)

T1 sequence (A0A024B7W1 292-693, tags left off): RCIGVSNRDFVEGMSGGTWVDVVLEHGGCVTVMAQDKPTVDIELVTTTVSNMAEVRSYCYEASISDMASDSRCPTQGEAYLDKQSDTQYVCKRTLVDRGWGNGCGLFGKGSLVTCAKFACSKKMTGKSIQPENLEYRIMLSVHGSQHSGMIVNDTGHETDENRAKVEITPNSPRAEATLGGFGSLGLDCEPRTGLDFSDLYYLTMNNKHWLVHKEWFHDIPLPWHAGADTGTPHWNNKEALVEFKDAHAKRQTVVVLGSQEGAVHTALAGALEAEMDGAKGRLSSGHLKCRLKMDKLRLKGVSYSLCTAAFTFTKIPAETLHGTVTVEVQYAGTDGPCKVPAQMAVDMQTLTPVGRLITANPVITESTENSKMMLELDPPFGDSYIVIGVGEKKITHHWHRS

B1: 单克隆抗体ZK2B10 (antibody, human IgG1, lambda, V domains shown)
VH: EVQLVQSGAEVKKPGASVKVSCKASGYTFTSGHTFPSYDINWVRQATGQGLEWMGWMNPNRGNTGYAQKFQGRVTMTRNTSINTAYMELSSLRSEDTAVYYCARVRSGTNYGSYYYYYYGMDVWGQGTTVTVSS
VL: SYELTQPPSASGTPGQRVTISCSGSSSNIGNNYVHWYQQLPGSAPKLLIYRNNQRPSGVPDRFSGSKSGTSGSLAISGLRSEDEADYYCASWDDSLSGHWVFGGGTKVTVLG
notes: also called ZK2B10抗体; IgG抗体
Regarding B1, the binding result is “binds”.
